T1: ASV integrase WT (avian sarcoma virus, UniProt P03354 1281-1567)
T1 sequence: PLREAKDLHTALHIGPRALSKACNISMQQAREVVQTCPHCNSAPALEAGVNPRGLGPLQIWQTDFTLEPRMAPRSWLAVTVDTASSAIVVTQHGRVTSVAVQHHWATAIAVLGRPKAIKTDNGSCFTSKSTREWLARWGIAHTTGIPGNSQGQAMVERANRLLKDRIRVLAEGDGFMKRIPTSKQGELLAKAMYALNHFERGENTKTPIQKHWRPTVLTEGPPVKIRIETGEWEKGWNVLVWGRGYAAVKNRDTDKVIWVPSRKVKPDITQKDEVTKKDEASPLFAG


Target: T1, ASV integrase WT
Assay: photocrosslinking; DNA-borne diazirine; among highest efficiency; Photocrosslinking: 40 mM HEPES pH 6.5, 150 mM NaCl, 5% glycerol, 0 C, 10 uM IN, 0.05 uM DNA; disulfide: Buffer 1 adjusted to 250-300 mM NaCl, pH 7.5, on ice, +/-10 mM MgCl2
Conditions: protein: recombinant; label: 32P; blunt

| Binder | binding result |
| --- | --- |
| NH2-3.11 linear (dsDNA, 5-aminouridine replacing T at position 11 of strand 3 (paper numbering), carrying aryl diazirine) DNA 1: AATGTAGTCTTATGCAATACTC DNA 2: GAGTATTGCATAAGACTACATT | binds |
| NH2-4.12 linear (dsDNA, 5-aminouridine at position 12 of strand 4 (paper numbering), carrying aryl diazirine) DNA 1: GAGTATTGCATAAGACTACATT DNA 2: AATGTAGTCTTATGCAATACTC | binds |

— publication PMC3228729, “Localization of ASV Integrase-DNA Contacts by Site-Directed Crosslinking and their Structural Analysis”
